± gives the standard deviation.
Test: protein stability index of a GFP-peptide fusion (GPS, HEK-293T) (PSI 1-6); higher = more stable
[1] = treatment: DMSO, c terminus: a fixed tail appended
[2] = treatment: MLN4924 1 uM, 8 h, c terminus: a fixed tail appended
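Also: 24-mer peptide tiles fused after GFP, lentivirally expressed, FACS-sorted into six equal bins by GFP/DsRed ratio, decoded by Illumina sequencing, PSI is the read-weighted mean bin number.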

Row | Sequence | protein stability index [1] | protein stability index [2] | protein stability index (treatment: DMSO, c terminus: native) | protein stability index (treatment: MLN4924 1 uM, 8 h, c terminus: native)
1 | LLAKNSKPIHTTILNPHVHVIGED [CAMK2B] | 3.2 ± 0.14 | 3.35 ± 0.22 |  | 
2 | SLSLFGCTNIFYEEENPGGCEDEY [ZER1] | 3.97 ± 0.14 | 4.06 ± 0.23 |  | 
3 | LEDGQTPLHLSALRDDVLCARMLY [ASB7] | 2.67 ± 0.29 | 2.93 ± 0.33 |  | 
4 | LDVKSPPEPRSEVVPARLKRASAP [RIPK4] | 5.08 ± 0.49 | 5.11 ± 0.092 |  | 
5 | DENERDLMHIAHIAELLEVFDLRM [RHOBTB2] | 2.63 ± 0.11 | 2.7 ± 0.34 |  | 
6 | APAAPMVSKGAESSRSSEESSSDS [BRD3] | 5.59 ± 0.19 | 5.63 ± 0.18 |  | 
7 | KQPPWEFLQVLEPGARGLWKPPDI [SPAG8] | 2.45 ± 0.089 | 2.32 ± 0.23 |  | 
8 | DEDELRKSLSELVDDKFGTGTKKV [PSD2] | 5.2 ± 0.15 | 5.4 ± 0.21 |  | 
9 | PRLTMHYPCLEKPRIWSLAHTATA [IRX6] | 2.31 ± 0.18 | 2.5 ± 0.11 |  | 
10 | RLSKEWEDSKRWSKMDQLAKELTA [CHGA] | 3.18 ± 0.34 | 3.41 ± 0.66 |  | 
11 | SEQCYYIFGDLCGNMANLSLHDHD [DVL3] | 2.96 ± 0.19 | 2.91 ± 0.27 |  | 
12 | YSIDQEFLKEYFPIEVVTEGLLNT [NLN] | 2.79 ± 0.24 | 3.19 ± 0.53 |  | 
13 | YAFVGDYSGQITLLKLEQNTCSVI [WDFY1] | 2.94 ± 0.65 | 2.72 ± 0.58 |  | 
14 | SRRQEKSAGDADPENGEIKPASKP [ELOA2] | 5.53 ± 0.19 | 5.69 ± 0.1 |  | 
15 | LEPKANLQAALQVLELHHSKLDTT [VPS39] | 4.2 ± 0.19 | 4.31 ± 0.19 |  | 
16 | RKYFADLAMNYKHGDPIPKVEFTE [TPH1] | 3.31 ± 0.32 | 3.3 ± 0.24 |  | 
17 | MASLSRPSLPSCLCSFLLLLLLQV [MOG] | 2.5 ± 0.41 | 2.28 ± 0.19 |  | 
18 | DSFTTNKEHAVTMPCTWVMACAYA [GNB5] | 2.73 ± 0.79 | 2.53 ± 0.58 |  | 
19 | IDSRARRNLGSINTELQDVQRIMV [SEC22B] | 2.8 ± 0.28 | 2.87 ± 0.29 |  | 
20 | SDQETLRIHERLVAGSLAGAIAQS [SLC25A25] | 3.87 ± 0.18 | 3.8 ± 0.43 |  | 
21 | LSEAYRVLSREQSRRSYDDQLRSG [DNAJC4] | 3.2 ± 0.3 | 3.03 ± 0.3 |  | 
22 | TEELTVIKSSLKDEYQYSFWDLFR [SLC2A12] | 2.38 ± 0.25 | 2.29 ± 0.35 |  | 

Row | Sequence | protein stability index [1] | protein stability index [2] | protein stability index (treatment: DMSO, c terminus: native) | protein stability index (treatment: MLN4924 1 uM, 8 h, c terminus: native)
23 | LEGQSPPQSLPSTPKAAWIREEGR [PBXIP1] | 4.89 ± 0.26 | 4.76 ± 0.091 |  | 
24 | LKMKEREEAWVKIENLAKANPQYT [PPP2R5C] | 3.4 ± 0.22 | 3.56 ± 0.19 |  | 
25 | LQRPSYKFFFKSMDDDFGVVKEEI [DVL3] | 2.76 ± 0.29 | 2.85 ± 0.35 |  | 
26 | CLLTYGMTSSSAYYYTKVMSELFL [PKD2L1] | 3.23 ± 0.41 | 2.83 ± 0.73 |  | 
27 | YGVKSPLSLIARFSPIAIDGMSGL [ELAVL3] | 2.41 ± 0.091 | 2.35 ± 0.33 |  | 
28 | MTESLEASEFLEQSMSQTRELLLD [RSPH3] | 4.9 ± 0.12 | 4.98 ± 0.32 |  | 
29 | KSKWDEEWDKNKSAFPFSDKLGEL [CLINT1] | 3.82 ± 0.31 | 3.85 ± 0.21 |  | 
30 | KQPPVTQSKTASDKSPSTVRDQGP [FBF1] | 5.29 ± 0.17 | 5.27 ± 0.091 |  | 
31 | KLLDELPIAKVMKDYLKHKFDDI [ASB7] |  |  | 2.37 ± 0.28 | 2.66 ± 0.38
32 | PEGHVLRSDGKTCAKLDSCALGDH [MATN2] | 4.79 ± 0.13 | 4.72 ± 0.21 |  | 
33 | WELREKQQLAAEPVPTGFFNMWGF [WDR41] | 2.01 ± 0.11 | 2.37 ± 0.23 |  | 
34 | AWMLCKLLDKAGVPPGVVNIVFGT [ALDH8A1] | 2.642 ± 0.019 | 2.77 ± 0.51 |  | 
35 | DPDVGVNSLQSYQLSPNKHFSLRV [PCDHGA10] | 2.6 ± 0.25 | 2.51 ± 0.24 |  | 
36 | MAKSVKYTVNFLEAKEGDLHRIEI [CARM1] | 2.55 ± 0.61 | 2.46 ± 0.58 |  | 
37 | LGNREALIQFLEQVHQGIKGMVLD [CPN1] | 2.43 ± 0.34 | 2.26 ± 0.18 |  | 
38 | LARKNREELDKYWSQQIEESTTVV [KRT18] | 4.24 ± 0.13 | 4.12 ± 0.23 |  | 
39 | LLAGGEKATMQNLNDRLASYLDKV [KRT17] | 2.84 ± 0.17 | 3.08 ± 0.31 |  | 
40 | RGYIKPHVDSIKFCGATIAGLSLL [ALKBH7] | 2.52 ± 0.41 | 2.39 ± 0.63 |  | 
41 | TETPLEGDFAWERVRGLGLPKLYL [CDKN1A] | 2.18 ± 0.15 | 2.57 ± 0.34 |  | 
42 | EAAEAVRPEERKTCRNPACGPQWE [ADAMTSL2] | 4.8 ± 0.27 | 4.74 ± 0.21 |  | 
43 | PTVGIGGDRLQFNQLSQAELDELA [EFHC1] | 5.13 ± 0.23 | 5.27 ± 0.15 |  | 
44 | CVDLTITNLLEGAVAFMPEDITKG [AUP1] | 2.29 ± 0.2 | 2.57 ± 0.33 |  | 

Row | Sequence | protein stability index [1] | protein stability index [2] | protein stability index (treatment: DMSO, c terminus: native) | protein stability index (treatment: MLN4924 1 uM, 8 h, c terminus: native)
45 | IVWFSFEFVVRCFACPSQALFFKN [KCNA4] | 2.91 ± 0.1 | 2.72 ± 0.81 |  | 
46 | GDTPIRKKEELLFDDGDDIMATLG [FBF1] | 4.35 ± 0.18 | 4.47 ± 0.29 |  | 
47 | RMYPFQIHSIALSTFASLIGPFGG [CDS2] | 2.79 ± 0.33 | 2.61 ± 0.5 |  | 
48 | ETSYQQREERLRRENEELSARYLS [FBF1] | 4.79 ± 0.2 | 4.89 ± 0.17 |  | 
49 | VGYQSQNISCFFRLVDRDSVWGYD [MYORG] | 2.34 ± 0.85 | 2.34 ± 0.17 |  | 
50 | DISMEIPQEFQKTVSTMYYLWMCS [SCAMP3] | 2.28 ± 0.54 | 2.38 ± 0.39 |  | 
51 | SVSSCDQEHQSALEEAKQPKNDNV [SMOC2] | 5.38 ± 0.21 | 5.64 ± 0.082 |  | 
52 | RRRIEEERLRLEQQKQQIMAALNS [ACBD3] | 4.05 ± 0.14 | 4.58 ± 0.2 |  | 
53 | LFFAVGIAQYALLGYFIRSWRTLA [SLC22A15] | 3.3 ± 0.34 | 3.18 ± 0.26 |  | 
54 | SNPELDVLLLGSVDGRHLLRTLSR [DNAAF3] | 2.5 ± 0.28 | 2.56 ± 0.32 |  | 
55 | EYFFDRNRPSFDAILYYYQSGGRL [KCNA1] | 2.52 ± 0.43 | 2.18 ± 0.29 |  | 
56 | IEKYLRRQLTKPRPVILDPADPTG [OAS1] | 3.09 ± 0.2 | 3.25 ± 0.24 |  | 
57 | LLFNVKSPTDIQDSSIIRTTQDLF [RHOBTB3] | 2.37 ± 0.17 | 2.35 ± 0.32 |  | 
58 | AELAETIVYARVLALHPEAPGLYN [CCDC3] | 1.99 ± 0.077 | 2.55 ± 0.2 |  | 
59 | VILFSSAVYFAEAEEAESHFSSIP [KCNA1] | 2.37 ± 0.5 | 2.35 ± 0.29 |  | 
60 | IAANLENKATNTDHLTTVLYLQLA [C8orf76] | 2.36 ± 0.28 | 2.17 ± 0.25 |  | 
61 | PSRRSENRVVVSGLPPSGSWQDLK [SRSF1] | 3.89 ± 0.33 | 4.21 ± 0.22 |  | 
62 | QLAHMVKEQEETIQRIDENVLGAQ [STX5] | 4.81 ± 0.45 | 4.96 ± 0.21 |  | 
63 | HGGSLLGKKYNWSCDDLMGGGGLH [GFOD1] | 2.73 ± 0.28 | 2.95 ± 0.27 |  | 
64 | DNILSLINVNDLSFVTGSHVGELI [WDR41] | 2.36 ± 0.32 | 2.63 ± 0.31 |  | 
65 | KFQLNKYTGEIKISENLDYEETGF [PCDHGA10] | 2.6 ± 0.099 | 3.63 ± 0.36 |  | 
